Reference: patent US20190275087A1, “EXPANSION AND DIFFERENTIATION OF STEM CELLS” (Allergan Pharmaceuticals International Limited, priority 2018, published 2019)

Experiments:
[1] = tested on: Human bone marrow-derived MSCs; experiment: MSC proliferation (crystal violet cell abundance); format: cell-based
Protocol: Human bone marrow-derived MSCs obtained from American Type Culture Collection (ATCC) were cultured in normal media, which consists of Alpha-Minimum Essential Medium (α-MEM) (Lonza) with 10% (v/v) FBS (Life Technologies) and 2.4 mM L-glutamine (Lonza), at 37° C. in a humidified normoxic incubator up to a maximum of 10 population doublings. Where indicated, the normal media was supplemented with 15 ng/mL IGF-1 (Life Technologies) and/or […] bFGF (Life Technologies), equivalent to the growth factor concentrations in the ATCC-recommended media. Cells were passaged once they reach 70-80% confluence.
Where indicated, tissue culture plastic wells were coated with 20 μg/mL recombinant human tropoelastin (Elastagen) or 2 μg/mL fibronectin (Sigma-Aldrich®) in PBS (10 mM phosphate, 150 mM NaCl, pH 7.4) at 4° C. overnight. The protein solution was removed, and wells were washed three times with PBS to remove unbound protein prior to cell seeding.
[…] To prevent protein adhesion on the tissue culture substrate, wells were pre-incubated with normal media for 5 hours to enable surface blocking by serum proteins prior to cell seeding in supplemented media.
Sub-confluent flasks of MSCs were treated with 0.05% (v/v) trypsin-EDTA (Sigma-Aldrich®) at 37° C. for 5 min to lift off adherent cells from the culture vessel. Trypsin was neutralized with two volumes of serum-containing growth media. Cells were centrifuged at 270 g for 5 min and resuspended in the required media. Cells were seeded at a density of 5000 cells/cm^2 on bare or protein-coated tissue culture plastic wells, in normal or supplemented media. Media was changed every 2 days. After specific time points, cells were fixed with 3% (v/v) formaldehyde at room temperature for 20 min, washed with PBS, then stained with 0.1% (w/v) crystal violet in 0.2 M MES buffer for 1 hour. Excess stain was washed off four times with reverse osmosis water. The retained stain was solubilized with 10% (v/v) acetic acid and sample absorbance values indicative of cell abundance were read at 570 nm. Sample absorbance values were subtracted by baseline values (corresponding to cell numbers in serum-free media, or cell numbers on day 1 post-seeding) and expressed as a fraction of the highest absorbance among all samples on day 7 post-seeding.

[2] = biological target: αv integrins (all αv subunit integrins) on human MSCs (human, UniProt P06756 31-1048); experiment: cell-based or functional assay
Chain of αv integrins (all αv subunit integrins) on human MSCs (P06756 31-1048, form in doubt): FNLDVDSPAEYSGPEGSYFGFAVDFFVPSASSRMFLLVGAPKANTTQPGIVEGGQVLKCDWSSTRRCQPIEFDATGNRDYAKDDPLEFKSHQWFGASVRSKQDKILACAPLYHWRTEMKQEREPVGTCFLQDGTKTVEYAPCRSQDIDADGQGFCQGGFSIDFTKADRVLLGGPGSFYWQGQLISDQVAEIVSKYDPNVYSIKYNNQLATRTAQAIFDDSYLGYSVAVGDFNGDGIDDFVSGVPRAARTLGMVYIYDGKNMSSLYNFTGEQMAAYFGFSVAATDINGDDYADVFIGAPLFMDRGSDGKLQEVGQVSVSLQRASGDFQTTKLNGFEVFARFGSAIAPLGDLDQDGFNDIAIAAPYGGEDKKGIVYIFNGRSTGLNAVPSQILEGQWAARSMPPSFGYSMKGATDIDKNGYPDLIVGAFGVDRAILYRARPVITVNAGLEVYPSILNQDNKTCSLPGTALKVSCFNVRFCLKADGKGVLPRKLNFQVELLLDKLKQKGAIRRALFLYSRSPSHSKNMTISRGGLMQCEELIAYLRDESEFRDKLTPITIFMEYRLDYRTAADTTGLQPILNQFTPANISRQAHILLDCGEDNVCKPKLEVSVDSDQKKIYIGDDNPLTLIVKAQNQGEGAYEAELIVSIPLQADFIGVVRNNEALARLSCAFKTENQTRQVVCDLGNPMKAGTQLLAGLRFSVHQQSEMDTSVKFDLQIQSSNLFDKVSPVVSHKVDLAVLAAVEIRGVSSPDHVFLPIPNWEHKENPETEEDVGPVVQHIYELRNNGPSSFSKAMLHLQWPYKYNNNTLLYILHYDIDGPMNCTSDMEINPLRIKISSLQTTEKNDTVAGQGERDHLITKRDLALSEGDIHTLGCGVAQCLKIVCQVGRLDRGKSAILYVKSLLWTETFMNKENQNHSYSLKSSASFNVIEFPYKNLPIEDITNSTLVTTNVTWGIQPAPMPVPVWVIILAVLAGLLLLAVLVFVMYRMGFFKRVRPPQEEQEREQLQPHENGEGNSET

[3] = tested on: MSCs; experiment: Cell migration via haptotaxis; format: cell-based, Human; details: 5 days post-seeding
Protocol: Polydimethylsiloxane (PDMS) was casted into 3D printed molds to create a circular shape with three rectangular cutouts, in which the middle rectangle was equidistant from the flanking rectangles. The PDMS stencil was placed inside a well plate and pressed tightly against the well surface to create watertight seal. The top and bottom rectangular chambers were filled with tropoelastin solution (20 μg/mL) or PBS, respectively, and air dried overnight. MSCs (1.2×10^6 cells/cm^2) were seeded into the middle chamber and allowed to attach for at least 2 hrs. The PDMS stencil was removed, and the culture well was covered with normal media. For up to 5 days, cells were stained daily with NucBlue™ Live ReadyProbes™ Reagent (Life Technologies) for 15 min, washed once with PBS, covered with normal media, and imaged under fluorescence at 360/460 nm using a Nikon Ti-E Live Cell Microscope. Cell migration into regions defined by tropoelastin or PBS coating was quantified via relative fluorescent areas using ImageJ software.

[4] = tested on: MSCs; experiment: Flow cytometry of MSC surface marker expression; format: cell-based, Human
Protocol: MSCs cultured for 5 or 7 days in various media formulations and on bare or protein-coated tissue culture wells were trypsinised and pelleted. The cell pellets were washed with 0.22 μm filtered FACS buffer (5% v/v FBS in PBS) and re-centrifuged at 270 g for 5 min. The cells were resuspended in FACS buffer to a concentration of 100,000 cells in 100 μL total volume, and probed for MSC marker expression using the Human Mesenchymal Stem Cell Verification Flow Kit (R&D Systems®). Isotype and unstained control samples were prepared using MSCs cultured in standard growth media on tissue culture plastic. Cells were analyzed using a BD™ Biosciences LSR II Flow Cytometer System. Singlet cells were determined by their forward scatter-to-side scatter and scatter height-to-width ratios, while viable cells were identified by exclusion of 1:20 propidium iodide. Only singlet, viable cells were analyzed for marker expression.

[5] = tested on: MSCs; experiment: MSC osteogenic differentiation (mineralized calcium, Alizarin Red S); format: cell-based, Human
Protocol: MSCs were grown in various media formulations and on bare or protein-coated tissue culture wells for 7 days. The expanded cells were harvested, re-seeded on TCP, and differentiated into the adipogenic, osteogenic and chondrogenic lineages using the hMSC Adipogenic BulletKit®, hMSC Osteogenic BulletKit®, and hMSC Chondrogenic BulletKit® (Lonza), respectively, following the manufacturer's instructions.
To confirm osteogenesis, cells that had been induced for 14 days were fixed and stained for mineralized calcium deposits with Alizarin Red S, as previously described. Cells from the adipogenic and osteogenic experiments were imaged with a Zeiss Axio Vert.A1 microscope using an AxioCam 105 colour camera.

[6] = tropoelastin substrate, normal media
[7] = tropoelastin substrate, unsupplemented 7% FBS media, 7 days
[8] = tropoelastin-coated surfaces, all media formulations, 5 days post-seeding

B1: recombinant human tropoelastin (Elastagen) (ligand, UniProt P15502-2 27-724, looked up)
chain: GGVPGAIPGGVPGGVFYPGAGLGALGGGALGPGGKPLKPVPGGLAGAGLGAGLGAFPAVTFPGALVPGGVADAAAAYKAAKAGAGLGGVPGVGGLGVSAGAVVPQPGAGVKPGKVPGVGLPGVYPGGVLPGARFPGVGVLPGVPTGAGVKPKAPGVGGAFAGIPGVGPFGGPQPGVPLGYPIKAPKLPGGYGLPYTTGKLPYGYGPGGVAGAAGKAGYPTGTGVGPQAAAAAAAKAAAKFGAGAAGVLPGVGGAGVPGVPGAIPGIGGIAGVGTPAAAAAAAAAAKAAKYGAAAGLVPGGPGFGPGVVGVPGAGVPGVGVPGAGIPVVPGAGIPGAAVPGVVSPEAAAKAAAKAAKYGARPGVGVGGIPTYGVGAGGFPGFGVGVGGIPGVAGVPGVGGVPGVGGVPGVGISPEAQAAAAAKAAKYGVGTPAAAAAKAAAKAAQFGLVPGVGVAPGVGVAPGVGVAPGVGLAPGVGVAPGVGVAPGVGVAPGIGPGGVAAAAKSAAKVAAKAQLRAAAGLGAGIPGLGVGVGVPGLGVGAGVPGLGVGAGVPGFGAVPGALAAAKAAKYGAAVPGVLGGLGALGGVGIPGGVVGAGPAAAAAAAKAAAKAAQFGLVGAAGLGGLGVGGLGVPGVGGLGGIPPAAAAKAAKYGAAGLGGVLGGAGQFPLGGVAARPGFGLSPIFPGGACLGKACGRKRK
- increase in cell proliferation compared to normal media or media with IGF-1 ([1]; 1 μg/mL in solution, 7 days): 18±5%
- increase in cell proliferation compared to normal media or media with IGF-1 ([1]; 20 μg/mL in solution, 7 days): 69±7%
- improved MSC proliferation over substrate-bound tropoelastin ([1]; 20 μg/mL in solution, 7 days post-seeding): 80±8%
- increase in MSC proliferation by substrate-bound tropoelastin over TCP ([1]; 7% FBS media with IGF-1, 7 days): 49±1%
- increase in MSC proliferation by substrate-bound tropoelastin over TCP ([1]; 7% FBS media with bFGF, 7 days): 40±3%
- increase in MSC proliferation by substrate-bound tropoelastin over TCP ([1]; 7% FBS media with both growth factors, 7 days): 29±3%
- increase in MSC proliferation by substrate-bound tropoelastin over TCP ([1]; 7% FBS, unsupplemented media, 7 days): 97±19%
- tropoelastin-mediated proliferative increase over bare TCP ([1]; 10% FBS media with IGF-1, 7 days): 41±1%
- tropoelastin-mediated proliferative increase over bare TCP ([1]; 10% FBS media with IGF-1 and bFGF, 7 days): 16±3%
- tropoelastin-mediated proliferative increase over bare TCP ([1]; 10% FBS media with bFGF, 7 days): 16±2%
- serum reduction at which cell expansion remained unaffected ([1]; 7 days post-seeding, substrate-bound tropoelastin without growth factors, or IGF-1 and bFGF in media on TCP): ≤ 40%
- serum reduction at which MSC numbers significantly decreased ([1]; coated surface, until 3 days post-seeding): 80%
- increase in cell numbers on tropoelastin-coated TCP over bare TCP ([1]; normal 10% (v/v) serum media, 7 days): 39±3%
- MSC propagation relative to bFGF ([1]; soluble 5 μg/mL, until 7 days post-seeding): comparable to bFGF
- MSC expansion relative to media containing both IGF-1 and bFGF ([1]; soluble 20 μg/mL, full serum media): equivalent to that in media containing both growth factors
- more potent than bFGF for MSC propagation ([1]; soluble 20 μg/mL, until 7 days post-seeding): 18±5%
- MSC expansion surpassing bFGF ([1]; soluble, at and above 1 μg/mL, 3 days post-seeding): up to 74±2%
- improved MSC proliferation compared to IGF-1 and bFGF in tandem ([1]; substrate-bound tropoelastin, 40% decrease in serum (6% FBS), 7 days): 23±3%
- serum reduction tolerated without deleterious effects to proliferation ([1]; surface-bound tropoelastin with growth factors in media, after 5 days post-seeding): ≤ 20%
- serum reduction allowed ([1]; surface-bound tropoelastin with growth factors in media, until 5 days post-seeding): 40%
- proliferation compared to cells on TCP in media with bFGF [1, 6]: similarly
- proliferation more than cells on TCP in media with IGF-1 [1, 6]: 36±3%
- decreased expansion compared to cells on TCP in media containing both IGF-1 and bFGF ([1]; tropoelastin substrate, normal media, no additional factors): 14±2%
- abundance compared to cells on TCP in media with both growth factors [1, 7]: equivalent in abundance
- greater expansion relative to cells on TCP in media with IGF-1 [1, 7]: 59±15%
- greater expansion relative to cells on TCP in media with bFGF [1, 7]: 37±13%
- focal adhesions per cell (vinculin staining) of MSCs on tropoelastin compared to those on BSA [2]: 1.5 fold
- more cells migrated to the tropoelastin-coated region compared to the control [3]: 45±8%
- MSC marker expression profile ([4]; 20 μg/mL soluble in media): displayed characteristic CD90+, CD105+, CD73+ and lineage negative expression profiles
- MSC phenotype (marker expression) ([4]; substrate-bound, replacing one or both growth factors, full or reduced serum media): fully retained
- cells expressing positive MSC markers CD90, CD105 and CD73 [4, 8]: more than 95%
- cells lacking hematopoietic markers CD34, CD45, CD11b, CD79a and HLA-DR [4, 8]: more than 98%
- osteogenesis versus timing of exposure during expansion ([5]; TE days 2-5, 3-6 or 4-7 of 7-day proliferation period): maximum effect associated with tropoelastin exposure in the later stages of expansion
- increased osteogenesis compared to cells grown on TCP ([5]; cells grown on coating): 113%
- mineralized calcium ([5]; cells induced and exposed to TE): increase in mineralized calcium concentrations
- MSC osteogenesis with tropoelastin added to hyaluronic acid ([5]; different molecular weight hyaluronic acid formulations): promoted MSC osteogenesis
- increased osteogenesis compared to cells exposed from days 2-5 ([5]; exposed days 4-7 of seven-day expansion): 24%
- osteogenesis dose response ([5]; grown in at least 2 μg/mL TE and induced in 20 μg/mL TE): Maximum osteogenesis
- improved osteogenesis ([5]; tropoelastin addition during differentiation): 55%
- increased osteogenesis ([5]; tropoelastin during both expansion and differentiation stages): up to 131%
- improved osteogenic potential ([5]; tropoelastin present during MSC expansion): 42%
